# Biological target: Amyloid-beta(1-42) Aβ(1-42) (Homo sapiens, UniProt P05067)
# Assay: BLI
row,Kd,Binder
1,1 µM,RPITRLRTHQNRRPITRLRTHQNR [DB3DB3]
2,75 µM,RPITRLRTHQNR [DB3]

# From paper PMC4841555 (2016)
